Laboratory results as given in patent publication US7232671.
Changes are numbered by the printed parent chain.

B1: full-length recombinant S1 with the Arg->Lys mutation at residue 9 (protein)
chain: DDPPATVYKYDSRPPEDVFQNGFTAWGNNDNVLDHLTGRSCQVGSSNSAFVSTSSSRRYTEVYLEHRMQEAVEAERAGRGTGHFIGYIYEVRADNNFYGAASSYFEYVDTYGDNAGRILAGALATYQSEYLAHRRIPPENIRRVTRVYHNGITGETTTTEYSNARYVSQHTRANPNPYTSRRSVASIVGTLVRMAPVIGACMARQAESSEAMAAWSERAGEAMVLVYYESIAYS
B2: S1 mutant 4-1 (Arg9->Lys in S1/6A) (protein)
chain: B1 chain with D1M, D2V
B3: S1 mutant 2-2 (Ser12->Gly in S1/6A) (protein)
chain: B1 chain with D1M, D2V, K9R, S12G
B4: S1 mutant 8-1 (Tyr8->Leu, Arg9->Glu in S1/6A) (protein)
chain: B1 chain with D1M, D2V, Y8L, K9E
B5: S1 mutant 7-2 (Arg9->Asn, Ser12->Gly in S1/6A) (protein)
chain: B1 chain with D1M, D2V, K9N, S12G
B6: S1 mutant 6-1 (Asp11->Pro, Pro14->Asp in S1/6A) (protein)
chain: B1 chain with D1M, D2V, K9R, D11P, P14D
B7: S1 mutant 1-1 (Arg13->Lys in S1/6A) (protein)
chain: B1 chain with D1M, D2V, K9R, R13K
B8: S1 mutant 3-1 (Asp11->Glu in S1/6A) (protein)
chain: B1 chain with D1M, D2V, K9R, D11E
B9: S1/6A (recombinant pertussis toxin S1 analog, parent construction 6A) (protein)
chain: B1 chain with D1M, D2V, K9R
B10: S1 mutant 5-1 (Tyr8->Phe in S1/6A) (protein)
chain: B1 chain with D1M, D2V, Y8F, K9R

Biological target: purified bovine transducin (alpha subunit is the ADP-ribose acceptor), P04695

For B1, the transferase activity was “transferase activity was reduced by a factor of approximately 1000”.

First: B2
Second: B3
The ADP-ribosyltransferase activity (cpm) of the first is lower: 754 cpm for the first, 22300 ± 2100 cpm for the second.

First: B4
Second: B5
The ADP-ribosyltransferase activity (cpm) of the first is higher: 926 cpm for the first, 753 cpm for the second.

First: B6
Second: B7
The ADP-ribosyltransferase activity (cpm) of the first is lower: 764 cpm for the first, 7390 ± 1370 cpm for the second.

First: B8
Second: B9
The ADP-ribosyltransferase activity (cpm) of the first is lower: 13500 ± 1600 cpm for the first, 23400 ± 950 cpm for the second.

For B10, the ADP-ribosyltransferase activity (cpm) was 26400 ± 1320 cpm.
